Laboratory results as given in PMC6563103 (Hepatology (Baltimore, Md.), 2019).

Molecular target: T1, glutathione S-transferase (GST)-CGI-58 (UniProt Q8WTS1 1-349)
T1 sequence (looked up): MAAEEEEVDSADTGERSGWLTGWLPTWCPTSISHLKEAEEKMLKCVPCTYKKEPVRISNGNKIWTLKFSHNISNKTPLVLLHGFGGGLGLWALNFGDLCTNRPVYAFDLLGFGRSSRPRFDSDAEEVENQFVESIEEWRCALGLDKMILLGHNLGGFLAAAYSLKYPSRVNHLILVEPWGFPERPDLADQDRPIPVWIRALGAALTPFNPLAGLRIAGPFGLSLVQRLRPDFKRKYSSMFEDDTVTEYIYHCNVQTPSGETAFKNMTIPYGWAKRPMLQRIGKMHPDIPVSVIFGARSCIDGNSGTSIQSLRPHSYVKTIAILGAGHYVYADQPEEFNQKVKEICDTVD
Test: pull-down

B1: recombinant PNPLA3(148M), deca-histidine and Flag fusion protein (enzyme, UniProt Q9NST1 1-481, looked up)
chain: MYDAERGWSLSFAGCGFLGFYHVGATRCLSEHAPHLLRDARMLFGASAGALHCVGVLSGIPLEQTLQVLSDLVRKARSRNIGIFHPSFNLSKFLRQGLCKCLPANVHQLISGKIGISLTRVSDGENVLVSDFRSKDEVVDALVCSCFMPFYSGLIPPSFRGVRYVDGGVSDNVPFIDAKTTITVSPFYGEYDICPKVKSTNFLHVDITKLSLRLCTGNLYLLSRAFVPPDLKVLGEICLRGYLDAFRFLEEKGICNRPQPGLKSSSEGMDPEVAMPSWANMSLDSSPESAALAVRLEGDELLDHLRLSILPWDESILDTLSPRLATALSEEMKDKGGYMSKICNLLPIRIMSYVMLPCTLPVESAIAIVQRLVTWLPDMPDDVLWLQWVTSQVFTRVLMCLLPASRSQMPVSSQQASPCTPEQDWPCWTPCSPKGCPAETKAEATPRSILRSSLNFFLGNKVPAGAEGLSTFPSFSLEKSL
molar ratio of PNPLA3 to CGI-58 in the precipitates: ~0.14 mol PNPLA3 per mol CGI-58
